According to patent publication US20240368354A1, “STEROID ACID-BASED HYDROGELS” (priority 2021, published 2024):
Where a SMILES comes first, the peptide text is derived from it. Bridges are numbered along the chain shown (N, C = ends). Roman numbers before positions name the chains, in order. Where no end group is shown, it is not given here. The star is where a group is joined. Chenodeoxycholyl = C[C@H](CCC(=O)*)[C@H]1CC[C@H]2[C@@H]3[C@H](O)C[C@@H]4C[C@H](O)CC[C@]4(C)[C@H]3CC[C@]12C; Cholyl = C[C@H](CCC(=O)*)[C@H]1CC[C@H]2[C@@H]3[C@H](O)C[C@@H]4C[C@H](O)CC[C@]4(C)[C@H]3C[C@H](O)[C@]12C

What was measured:
[1] = Hydrogel formation of steroid acid-peptide monomer conjugates upon resuspension in solvent; format: physicochemical; settings: for hydrogel formation: 6.67 mg/ml, cell medium (complete DMEM with human cells), 2 hours of incubation
Protocol: Specific hydrogel formation was conducted by resuspending the powder of each steroid acid-peptide monomer or dimer conjugate in phosphate buffered saline (PBS) 1X (pH 7.4), pure water, complete cell medium (DMEM), DMSO, or alcohol:water mixtuLes (e.g., methanol:water (40:60)) at room temperature or 37° C. at a concentration between 6-30 mg/mL.
Hydrogel formation was evaluated upon dissolution of the different peptide or steroid acid-peptide conjugates described in FIG. 1 in different solvents. […] Hydrogel structure (soft vs. hard) and color/clarity (translucent vs. opaque) varied among the different conditions. […] At concentrations lower than 10 mg/mL, all steroid acid-hnRNPA1 NLS conjugates tested formed liquid droplets in PBS at room temperature. Monomers of GWG-SV40NLS conjugated to steroid acids were also shown to form hydrogels (data not shown).

[2] = tested on: JIMT1 cells (breast cancer cell line); assay: Cell cytotoxicity assay (PrestoBlue); format: cell-based; settings: for toxicity of dimer hydrogels compared with monomers: cells treated three days, PrestoBlue, dimers versus monomers
Protocol: 5000 JIMT1 cells (breast cancer cell line) per well (96-well plate) were plated. After one day, cells were treated with the different steroid acid-peptide conjugates or hydrogels for three days. Cell survival was determined by PrestoBlue™ following the manufacturer's protocol.
Hydrogels are commonly used for drug delivery and in vivo applications, and therefore assessing their safety profiles is highly pertinent. Cytotoxicity of hydrogels was evaluated via a cytotoxicity assay by incubating cells with hydrogels formed by monomers or steroid acid-peptide conjugates, as described in Example 1.

[3] = monomers, room temperature and 37° C.

LCA-hnRNPA1 NLS: lithocholic acid (LCA) conjugated to hnRNPA1 M9 NLS peptide (SEQ ID NO: 4) (SNFGPMKGGNFGGRSSGPY; also: lithocholic acid (LCA) conjugate, site not given here)
hydrogel formation following resuspension ([1]; monomers, 25 mg/mL in PBS 1X (pH 7.4), room temperature): a hydrogel spontaneously formed within a matter of seconds

CC[C@H](C)[C@H](NC(=O)CNC(=O)[C@H](CSSC[C@H](NC(=O)CC[C@@H](C)[C@H]1CC[C@H]2[C@@H]3[C@H](O)C[C@@H]4C[C@H](O)CC[C@]4(C)[C@H]3C[C@H](O)[C@]12C)C(=O)NCC(=O)N[C@H](C(=O)NCC(=O)N[C@@H](C)C(=O)N[C@H](C(=O)N[C@@H](CC(C)C)C(=O)N[C@@H](CCCCN)C(=O)N[C@H](C(=O)N[C@@H](CC(C)C)C(=O)N[C@H](C(=O)N[C@H](C(=O)NCC(=O)N[C@@H](CC(C)C)C(=O)N1CCC[C@H]1C(=O)N[C@@H](C)C(=O)N[C@@H](CC(C)C)C(=O)N[C@H](C(=O)N[C@@H](CO)C(=O)N[C@@H](Cc1c[nH]c2ccccc12)C(=O)N[C@H](C(=O)N[C@@H](CCCCN)C(=O)N[C@@H](CCCNC(=N)N)C(=O)N[C@@H](CCCCN)C(=O)N[C@@H](CCCNC(=N)N)C(=O)N[C@@H](CCC(N)=O)C(=O)N[C@@H](CCC(N)=O)C(N)=O)[C@@H](C)CC)[C@@H](C)CC)[C@@H](C)O)[C@@H](C)O)C(C)C)C(C)C)[C@@H](C)CC)NC(=O)CC[C@@H](C)[C@H]1CC[C@H]2[C@@H]3[C@H](O)C[C@@H]4C[C@H](O)CC[C@]4(C)[C@H]3C[C@H](O)[C@]12C)C(=O)NCC(=O)N[C@@H](C)C(=O)N[C@H](C(=O)N[C@@H](CC(C)C)C(=O)N[C@@H](CCCCN)C(=O)N[C@H](C(=O)N[C@@H](CC(C)C)C(=O)N[C@H](C(=O)N[C@H](C(=O)NCC(=O)N[C@@H](CC(C)C)C(=O)N1CCC[C@H]1C(=O)N[C@@H](C)C(=O)N[C@@H](CC(C)C)C(=O)N[C@H](C(=O)N[C@@H](CO)C(=O)N[C@@H](Cc1c[nH]c2ccccc12)C(=O)N[C@H](C(=O)N[C@@H](CCCCN)C(=O)N[C@@H](CCCNC(=N)N)C(=O)N[C@@H](CCCCN)C(=O)N[C@@H](CCCNC(=N)N)C(=O)N[C@@H](CCC(N)=O)C(=O)N[C@@H](CCC(N)=O)C(N)=O)[C@@H](C)CC)[C@@H](C)CC)[C@@H](C)O)[C@@H](C)O)C(C)C)C(C)C [dimerized CA-Melittin]
toxicity of dimer hydrogels compared with monomers [2]: significantly less toxic

CSCC[C@H](NC(=O)[C@@H]1CCCN1C(=O)CNC(=O)[C@H](Cc1ccccc1)NC(=O)[C@H](CC(N)=O)NC(=O)[C@H](CO)NC(=O)[C@H](CSSC[C@H](NC(=O)CC[C@@H](C)[C@H]1CC[C@H]2[C@@H]3[C@H](O)C[C@@H]4C[C@H](O)CC[C@]4(C)[C@H]3CC[C@]12C)C(=O)N[C@@H](CO)C(=O)N[C@@H](CC(N)=O)C(=O)N[C@@H](Cc1ccccc1)C(=O)NCC(=O)N1CCC[C@H]1C(=O)N[C@@H](CCSC)C(=O)N[C@@H](CCCCN)C(=O)NCC(=O)NCC(=O)N[C@@H](CC(N)=O)C(=O)N[C@@H](Cc1ccccc1)C(=O)NCC(=O)NCC(=O)N[C@@H](CCCNC(=N)N)C(=O)N[C@@H](CO)C(=O)N[C@@H](CO)C(=O)NCC(=O)N1CCC[C@H]1C(=O)N[C@@H](Cc1ccc(O)cc1)C(N)=O)NC(=O)CC[C@@H](C)[C@H]1CC[C@H]2[C@@H]3[C@H](O)C[C@@H]4C[C@H](O)CC[C@]4(C)[C@H]3CC[C@]12C)C(=O)N[C@@H](CCCCN)C(=O)NCC(=O)NCC(=O)N[C@@H](CC(N)=O)C(=O)N[C@@H](Cc1ccccc1)C(=O)NCC(=O)NCC(=O)N[C@@H](CCCNC(=N)N)C(=O)N[C@@H](CO)C(=O)N[C@@H](CO)C(=O)NCC(=O)N1CCC[C@H]1C(=O)N[C@@H](Cc1ccc(O)cc1)C(N)=O [Dimerized CDCA-hnRNPA1 M9 NLS] (I: Chenodeoxycholyl-CSNFGPMKGGNFGGRSSGPY-NH2 / II: Chenodeoxycholyl-CSNFGPMKGGNFGGRSSGPY-NH2; disulfide I:1-II:1)
cell viability ([2]; JIMT1 cells, three days treatment, all concentrations tested up to 100 μg/mL): Viability was maintained

CA-Melittin: cholic acid conjugated to the peptide melittin (SEQ ID NO: 16)
hydrogel formation in monomer form [1]: not able to form a hydrogel

CA-NLS1 RPS17: cholic acid conjugated to NLS1 RPS17 peptide (SEQ ID NO: 9) (MGRVRTKTVKKAAGG; also: cholic acid conjugate, site not given here)
hydrogel formation in monomer form [1]: not observed to form a hydrogel

CSCC[C@H](NC(=O)[C@H](CSSC[C@H](NC(=O)CC[C@@H](C)[C@H]1CC[C@H]2[C@@H]3[C@H](O)C[C@@H]4C[C@H](O)CC[C@]4(C)[C@H]3C[C@H](O)[C@]12C)C(=O)N[C@@H](CCSC)C(=O)NCC(=O)N[C@@H](CCCNC(=N)N)C(=O)N[C@H](C(=O)N[C@@H](CCCNC(=N)N)C(=O)N[C@H](C(=O)N[C@@H](CCCCN)C(=O)N[C@H](C(=O)N[C@H](C(=O)N[C@@H](CCCCN)C(=O)N[C@@H](CCCCN)C(=O)N[C@@H](C)C(=O)N[C@@H](C)C(=O)NCC(=O)NCC(N)=O)C(C)C)[C@@H](C)O)[C@@H](C)O)C(C)C)NC(=O)CC[C@@H](C)[C@H]1CC[C@H]2[C@@H]3[C@H](O)C[C@@H]4C[C@H](O)CC[C@]4(C)[C@H]3C[C@H](O)[C@]12C)C(=O)NCC(=O)N[C@@H](CCCNC(=N)N)C(=O)N[C@H](C(=O)N[C@@H](CCCNC(=N)N)C(=O)N[C@H](C(=O)N[C@@H](CCCCN)C(=O)N[C@H](C(=O)N[C@H](C(=O)N[C@@H](CCCCN)C(=O)N[C@@H](CCCCN)C(=O)N[C@@H](C)C(=O)N[C@@H](C)C(=O)NCC(=O)NCC(N)=O)C(C)C)[C@@H](C)O)[C@@H](C)O)C(C)C [dimerized CA-NLS1 RPS17] (I: Cholyl-CMGRVRTKTVKKAAGG-NH2 / II: Cholyl-CMGRVRTKTVKKAAGG-NH2; disulfide I:1-II:1)
toxicity of dimer hydrogels compared with monomers [2]: significantly less toxic

GCDCA-hnRNPA1 NLS: glycochenodeoxycholic acid (GCDCA) conjugated to hnRNPA1 M9 NLS peptide (SEQ ID NO: 4) (SNFGPMKGGNFGGRSSGPY; also: glycochenodeoxycholic acid (GCDCA) conjugate, site not given here)
time after which hydrogel formation was induced ([1]; monomer, final concentration 6.67 mg/mL, complete DMEM containing human cells, room temperature and 37° C.): 30 min | hydrogel formation [1, 3]: formed a hydrogel

GDCA-hnRNPA1 NLS: glycodeoxycholic acid (GDCA) conjugated to hnRNPA1 M9 NLS peptide (SEQ ID NO: 4) (SNFGPMKGGNFGGRSSGPY; also: glycodeoxycholic acid (GDCA) conjugate, site not given here)
hydrogel formation [1, 3]: formed a hydrogel

CSCC[C@H](NC(=O)[C@@H]1CCCN1C(=O)CNC(=O)[C@H](Cc1ccccc1)NC(=O)[C@H](CC(N)=O)NC(=O)[C@H](CO)NC(=O)[C@H](CS)NC(=O)CC[C@@H](C)[C@H]1CC[C@H]2[C@@H]3[C@H](O)C[C@@H]4C[C@H](O)CC[C@]4(C)[C@H]3CC[C@]12C)C(=O)N[C@@H](CCCCN)C(=O)NCC(=O)NCC(=O)N[C@@H](CC(N)=O)C(=O)N[C@@H](Cc1ccccc1)C(=O)NCC(=O)NCC(=O)N[C@@H](CCCNC(=N)N)C(=O)N[C@@H](CO)C(=O)N[C@@H](CO)C(=O)NCC(=O)N1CCC[C@H]1C(=O)N[C@@H](Cc1ccc(O)cc1)C(N)=O [CDCA-hnRNPA1 M9 NLS] (Chenodeoxycholyl-CSNFGPMKGGNFGGRSSGPY-NH2)
concentrations at which viability of cells was reduced ([2]; JIMT1 cells, three days treatment, hydrogels formed by monomers): higher than 10 μg/mL

GUDCA-hnRNPA1 NLS: glycoursodeoxycholic acid (GUDCA) conjugated to hnRNPA1 M9 NLS peptide (SEQ ID NO: 4) (SNFGPMKGGNFGGRSSGPY; also: glycoursodeoxycholic acid (GUDCA) conjugate, site not given here)
incubation time after which a hydrogel formed ([1]; 20 mg/ml in pure water, room temperature): 1 to 3 h | hydrogel formation [1, 3]: formed a hydrogel
